Columns and labels:
Experiment in all cases: cell-based or functional assay
[1] = biological target: GHRH receptor (GHRH-R) (human) (UniProt Q02643)
[2] = biological target: somatostatin receptors (multi-somatostatin receptor)
[3] = biological target: GPR101 (human) (UniProt Q96P66)
[4] = biological target: somatostatin receptor 2 (SSTR2) (human) (UniProt P30874)
Sequence of UniProt P30874 (P30874 whole entry): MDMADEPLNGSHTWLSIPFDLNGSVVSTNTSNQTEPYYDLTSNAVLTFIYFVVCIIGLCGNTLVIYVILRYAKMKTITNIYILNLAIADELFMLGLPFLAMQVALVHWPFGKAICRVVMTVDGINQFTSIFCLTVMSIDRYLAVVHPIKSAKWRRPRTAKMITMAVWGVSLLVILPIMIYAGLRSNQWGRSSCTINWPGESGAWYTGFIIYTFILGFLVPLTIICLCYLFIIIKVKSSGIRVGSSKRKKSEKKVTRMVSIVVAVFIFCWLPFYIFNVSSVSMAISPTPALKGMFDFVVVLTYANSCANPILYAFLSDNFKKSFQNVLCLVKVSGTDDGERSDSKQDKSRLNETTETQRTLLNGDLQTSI

Sequence of UniProt Q02643 (Q02643 23-423): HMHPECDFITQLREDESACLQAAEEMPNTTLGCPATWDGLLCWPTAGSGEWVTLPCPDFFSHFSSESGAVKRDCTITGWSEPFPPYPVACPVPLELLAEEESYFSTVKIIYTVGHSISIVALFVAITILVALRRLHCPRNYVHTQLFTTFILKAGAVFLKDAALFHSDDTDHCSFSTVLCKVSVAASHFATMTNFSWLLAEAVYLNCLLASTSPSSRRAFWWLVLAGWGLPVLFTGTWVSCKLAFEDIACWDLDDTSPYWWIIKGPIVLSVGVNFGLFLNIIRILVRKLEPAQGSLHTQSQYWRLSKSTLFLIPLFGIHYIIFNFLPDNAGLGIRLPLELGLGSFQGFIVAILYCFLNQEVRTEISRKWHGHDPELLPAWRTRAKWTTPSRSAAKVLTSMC
Sequence of UniProt Q96P66 (Q96P66 whole entry): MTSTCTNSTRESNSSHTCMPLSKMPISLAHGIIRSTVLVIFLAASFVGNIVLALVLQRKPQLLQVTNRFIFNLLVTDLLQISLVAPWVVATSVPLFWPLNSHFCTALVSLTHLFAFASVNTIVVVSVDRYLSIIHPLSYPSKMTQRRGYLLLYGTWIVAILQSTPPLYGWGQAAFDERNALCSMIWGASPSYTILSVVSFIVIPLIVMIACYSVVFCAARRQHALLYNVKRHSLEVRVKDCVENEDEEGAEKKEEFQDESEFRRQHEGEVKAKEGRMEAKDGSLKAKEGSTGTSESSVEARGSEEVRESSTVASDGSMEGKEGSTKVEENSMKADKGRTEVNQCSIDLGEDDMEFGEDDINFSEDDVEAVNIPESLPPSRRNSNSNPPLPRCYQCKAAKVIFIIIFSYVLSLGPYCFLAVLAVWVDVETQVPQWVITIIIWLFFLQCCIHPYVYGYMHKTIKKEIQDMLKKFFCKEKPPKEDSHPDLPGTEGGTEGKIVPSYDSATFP

GH releasing hormone (GHRH) (from UniProt P01286 32-75) (ligand)
GH secretion by primary X-LAG pituitary tumour cells, % change vs control wells, GHRH at 10^-10 M [1]: 410% | Prolactin secretion by primary X-LAG pituitary tumour cells, % change vs control wells, GHRH at 10^-8 M [1]: 11%

pasireotide (peptide)
GH secretion by primary X-LAG pituitary tumour cells, % change vs control, maximum inhibition at 10^-8 M [2]: -18%

GnRH1-5 (from UniProt P01148 24-28) (peptide)
GH secretion by primary X-LAG pituitary tumour cells, % change vs control, GnRH1-5 at 10^-10 M [3]: 15%

octreotide (peptide)
Prolactin secretion by primary X-LAG pituitary tumour cells, % change vs control, octreotide at 10^-9 M [4]: -26%
